In test [1] the test system is HLA-DR2 (DRB1*1501) Tg mice, CD8-depleted splenocytes. Format: cell-based, mouse.
The target in test [2] is HLA-DR2 (chimeric HLA-DRA1*0101/DRB1*1501 with I-E domains) (human; murine) (UniProt Q8BHN5). The experiment in a line: cell-based or functional assay.
Test [3] has as its system HLA-A2.1 (HLA-A*0201) Tg mice, CD4-depleted splenocytes. Format: cell-based, mouse.
The target in test [4] is HLA-A2.1 (HHD monochain) (human; murine). The experiment in a line: cell-based or functional assay.

Chain of UniProt Q8BHN5 (Q8BHN5 whole entry, stated change not applied): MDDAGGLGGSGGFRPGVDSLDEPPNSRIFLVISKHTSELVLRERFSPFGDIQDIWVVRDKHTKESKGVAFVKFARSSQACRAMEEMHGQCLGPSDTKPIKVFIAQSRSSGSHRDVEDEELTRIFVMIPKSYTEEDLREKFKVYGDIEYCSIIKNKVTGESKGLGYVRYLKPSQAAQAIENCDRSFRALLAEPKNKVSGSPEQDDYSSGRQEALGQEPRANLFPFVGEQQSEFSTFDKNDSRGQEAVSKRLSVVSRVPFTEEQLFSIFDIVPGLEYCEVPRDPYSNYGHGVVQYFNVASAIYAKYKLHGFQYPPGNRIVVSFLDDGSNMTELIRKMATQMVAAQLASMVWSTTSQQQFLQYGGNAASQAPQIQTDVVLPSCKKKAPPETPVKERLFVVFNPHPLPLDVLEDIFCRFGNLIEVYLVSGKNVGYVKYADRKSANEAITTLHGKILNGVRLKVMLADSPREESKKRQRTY

For MFAAFVISGKSTDMWIER [NS2b 39-56], in test [1], the “T cell activation of HLA transgenic mice (SFC/10^6) IFN-γ ELISpot, DR2” value (from here on “T cell activation of HLA transgenic mice … DR2”) worked out at 47 ± 18 SFC/10^6. Consider WNV NS3 176-192 peptide, for which the IFN-γ ELISpot (SFC/10^6) in test [2] came out at 59 SFC/10^6. As for IVVEPGKNVKNVQTKPGV [NS3 98-115], the “T cell activation of HLA transgenic mice (SFC/10^6) IFN-γ ELISpot, A2” value (from here on “T cell activation of HLA transgenic mice … A2”) in test [3] is 145 ± 25 SFC/10^6.

Consider RAWNSGYEWITEYTGKTV [NS3 343-360], for which the “T cell activation of HLA transgenic mice … A2” value in test [3] is given as 55 ± 21 SFC/10^6. Take WNV NS2a 6-23 peptide: the IFN-γ ELISpot (SFC/10^6) in test [2] worked out at 563 SFC/10^6.

As to WNV NS3 78-95 peptide, the IFN-γ ELISpot (SFC/10^6) in test [4] worked out at 150 SFC/10^6. In test [4], WNV NS3 138-155 peptide displayed an IFN-γ ELISpot (SFC/10^6) of 159 SFC/10^6.

Turning to AAQRRGRIGRNPSQV [NS3 455-469], in test [1], the “T cell activation of HLA transgenic mice … DR2” value is reported as 200 ± 27 SFC/10^6.

Turning to GLFNPMILAAGLIACDPNR [NS2a 211-229], in test [1], the “T cell activation of HLA transgenic mice … DR2” value amounted to 74 ± 23 SFC/10^6.

In test [4], WNV NS3 85-100 peptide returned an IFN-γ ELISpot (SFC/10^6) of 72 SFC/10^6. Take VLAPTRVVAAEMAEALR [NS3 221-237]: the “T cell activation of HLA transgenic mice … A2” value in test [3] was found to be 26 ± 4 SFC/10^6. The same measure, in the same setting: under ERKNFLELLRTADLPVWL [NS3 530-547] stands 127 ± 10 SFC/10^6. For WNV E 68-85 peptide, the IFN-γ ELISpot (SFC/10^6) in test [4] came out at 372 SFC/10^6. In the case of GEFLLDLRPATAWSLYAV [NS4b 30-47], the “T cell activation of HLA transgenic mice … DR2” value in test [1] was determined as 89 ± 21 SFC/10^6.

The substance WNV NS2a 211-229 peptide displayed an IFN-γ ELISpot (SFC/10^6) in test [2] of 74 SFC/10^6. Regarding WNV NS3 249-266 peptide, the values for the IFN-γ ELISpot (SFC/10^6) in test [2] and in test [4] were 139 SFC/10^6 and 79 SFC/10^6, respectively. Take GQDEVQMIVVEPGKNVK [NS3 91-107]: the “T cell activation of HLA transgenic mice … A2” value in test [3] amounted to 156 ± 11 SFC/10^6. Substance WNV NS5 598-615 peptide displayed an IFN-γ ELISpot (SFC/10^6) in test [2] of 252 SFC/10^6. On to WNV NS3 146-162 peptide, for which the IFN-γ ELISpot (SFC/10^6) in test [4] came to 58 SFC/10^6. Still for that read-out and setting: the figure for WNV NS3 98-115 peptide is 145 SFC/10^6; for WNV NS2b 115-131 peptide it is 108 SFC/10^6. ECHTCIYNMMGKREKK [NS5 448-463]: the “T cell activation of HLA transgenic mice … A2” value in test [3] came out at 26 ± 7 SFC/10^6. In turn, WNV NS3 324-340 peptide gave an IFN-γ ELISpot (SFC/10^6) in test [4] of 117 SFC/10^6. In test [2], WNV NS2a 80-97 peptide yielded an IFN-γ ELISpot (SFC/10^6) of 289 SFC/10^6. Consider NRRLRTAVLAPTRVVAA [NS3 214-230], for which the “T cell activation of HLA transgenic mice … DR2” value in test [1] is given as 146 ± 29 SFC/10^6. Take CYGGPWKLQHKWNGQDEV [NS3 78-95]: the “T cell activation of HLA transgenic mice … A2” value in test [3] was determined as 150 ± 17 SFC/10^6. In the case of WNV NS5 181-198 peptide, the IFN-γ ELISpot (SFC/10^6) in test [2] was found to be 122 SFC/10^6. GKTRRILPQIIKEAINRR [NS3 199-216]: in test [1], the “T cell activation of HLA transgenic mice … DR2” value is on record as 52 ± 6 SFC/10^6. In the case of WNV prM 114-130 peptide, the IFN-γ ELISpot (SFC/10^6) in test [2] stood at 101 SFC/10^6. The substance WNV NS3 304-321 peptide returned an IFN-γ ELISpot (SFC/10^6) in test [4] of 94 SFC/10^6. Take WNV NS2a 128-145 peptide: the IFN-γ ELISpot (SFC/10^6) in test [2] was 384 SFC/10^6. WNV NS3 359-376 peptide yielded an IFN-γ ELISpot (SFC/10^6) in test [4] of 75 SFC/10^6. Turning to WNV NS3 183-200 peptide, the IFN-γ ELISpot (SFC/10^6) in test [2] turned out to be 55 SFC/10^6; in test [4], 62 SFC/10^6. On to WNV NS3 460-475 peptide, for which the IFN-γ ELISpot (SFC/10^6) in test [2] is 123 SFC/10^6. Consider SWITQGLLGALLLWMGI [E 458-474], for which the “T cell activation of HLA transgenic mice … DR2” value in test [1] was found to be 51 ± 4 SFC/10^6. On to VKVLCPYMPKVIEKMELL [NS5 181-198], for which the “T cell activation of HLA transgenic mice … DR2” value in test [1] worked out at 122 ± 40 SFC/10^6. For TDVLRYVILVGAAFA [NS2a 52-66], the “T cell activation of HLA transgenic mice … DR2” value in test [1] turned out to be 516 ± 9 SFC/10^6. Substance WNV NS4b 30-47 peptide returned an IFN-γ ELISpot (SFC/10^6) in test [2] of 89 SFC/10^6. Take MATFKIQPVFMVASFLKA [NS2a 80-97]: in test [1], the “T cell activation of HLA transgenic mice … DR2” value is recorded as 289 ± 83 SFC/10^6. The substance WNV NS5 448-463 peptide returned an IFN-γ ELISpot (SFC/10^6) in test [4] of 26 SFC/10^6. In turn, WNV NS3 214-230 peptide gave an IFN-γ ELISpot (SFC/10^6) in test [2] of 146 SFC/10^6. For the substance WNV NS2a 160-177 peptide, in test [4], the IFN-γ ELISpot (SFC/10^6) came to 63 SFC/10^6. In the case of GWLSCLSITWTLIKNMEK [NS4b 233-250], the “T cell activation of HLA transgenic mice … DR2” value in test [1] came to 62 ± 6 SFC/10^6. WNV NS1 236-251 peptide: in test [4], the IFN-γ ELISpot (SFC/10^6) worked out at 78 SFC/10^6. Turning to WNV NS2a 136-154 peptide, the IFN-γ ELISpot (SFC/10^6) in test [2] came to 98 SFC/10^6. As to PAGFEPEMLRKKQITVL [NS3 176-192], the “T cell activation of HLA transgenic mice … DR2” value in test [1] turned out to be 59 ± 8 SFC/10^6. In the case of TVWFVPSVKMGNEIALCL [NS3 359-376], the “T cell activation of HLA transgenic mice … A2” value in test [3] was 75 ± 44 SFC/10^6.

Take THTLWGDGILESDLIIPV [NS1 228-245]: the “T cell activation of HLA transgenic mice … A2” value in test [3] was 84 ± 47 SFC/10^6.

The values are drawn from patent publication US20130011427A1 (priority 2009, published 2013).
